Experimental data published in PMC11036296.

Target: Patched 1 (Ptch1) receptor (mouse (endogenous in C3H10T1/2)) (UniProt Q61115)
UniProt Q61115, sequence (Q61115 whole entry): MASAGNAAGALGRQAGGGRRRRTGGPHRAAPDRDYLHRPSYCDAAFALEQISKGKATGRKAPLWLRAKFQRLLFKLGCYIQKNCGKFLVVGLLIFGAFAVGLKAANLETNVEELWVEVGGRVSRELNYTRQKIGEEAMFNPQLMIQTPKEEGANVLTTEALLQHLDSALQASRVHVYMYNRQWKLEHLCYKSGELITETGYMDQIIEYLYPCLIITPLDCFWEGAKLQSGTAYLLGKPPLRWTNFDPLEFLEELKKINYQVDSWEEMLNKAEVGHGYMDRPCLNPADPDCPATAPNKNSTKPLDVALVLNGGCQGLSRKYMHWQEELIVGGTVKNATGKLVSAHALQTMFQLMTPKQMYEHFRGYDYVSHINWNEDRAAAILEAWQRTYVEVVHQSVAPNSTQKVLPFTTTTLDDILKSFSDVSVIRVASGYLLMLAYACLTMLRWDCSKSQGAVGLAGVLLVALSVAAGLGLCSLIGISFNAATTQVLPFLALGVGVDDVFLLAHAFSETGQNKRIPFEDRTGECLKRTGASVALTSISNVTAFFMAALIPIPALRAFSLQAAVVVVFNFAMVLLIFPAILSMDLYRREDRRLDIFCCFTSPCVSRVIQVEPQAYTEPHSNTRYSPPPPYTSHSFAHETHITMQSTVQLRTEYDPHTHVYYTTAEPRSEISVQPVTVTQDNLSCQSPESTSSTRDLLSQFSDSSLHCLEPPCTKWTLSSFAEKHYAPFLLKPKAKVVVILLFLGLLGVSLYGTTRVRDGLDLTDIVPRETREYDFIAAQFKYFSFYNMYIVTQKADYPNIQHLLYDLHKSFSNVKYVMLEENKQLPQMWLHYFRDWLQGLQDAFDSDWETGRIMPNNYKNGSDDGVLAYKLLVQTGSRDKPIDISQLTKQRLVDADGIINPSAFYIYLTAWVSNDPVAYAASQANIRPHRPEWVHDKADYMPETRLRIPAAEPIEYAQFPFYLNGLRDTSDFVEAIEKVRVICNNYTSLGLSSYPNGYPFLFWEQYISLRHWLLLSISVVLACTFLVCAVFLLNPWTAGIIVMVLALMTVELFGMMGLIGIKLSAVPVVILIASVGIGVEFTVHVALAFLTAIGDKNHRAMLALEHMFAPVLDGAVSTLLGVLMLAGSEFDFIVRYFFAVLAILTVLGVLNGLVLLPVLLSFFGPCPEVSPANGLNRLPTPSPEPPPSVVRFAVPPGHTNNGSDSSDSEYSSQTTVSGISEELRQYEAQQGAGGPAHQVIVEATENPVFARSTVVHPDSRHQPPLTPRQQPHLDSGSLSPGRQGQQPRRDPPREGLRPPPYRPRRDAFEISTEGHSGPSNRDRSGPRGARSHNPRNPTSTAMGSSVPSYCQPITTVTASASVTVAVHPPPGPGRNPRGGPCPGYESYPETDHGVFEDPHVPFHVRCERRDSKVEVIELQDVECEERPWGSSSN

Substance | Alp1 activity of C3H10T1/2 cells (differentiation into osteoblasts) [au] | Alp1 activity of C3H10T1/2 cells (differentiation into osteoblasts), with the Shh-neutralising antibody 5E1 (1 µg/mL) [au]
^C25SShh^C, unpalmitoylated cholesteroylated soluble Shh (from UniProt Q62226 25-198) (ligand) | 1.71 | 0.21
^C25S;Δ26–37Shh^C (from UniProt Q62226 25-198) (ligand) | 0.46 | 
^C25S;Δ26–36Shh^C (from UniProt Q62226 25-198) (ligand) | 0.39 | 
^C25S;Δ26–32Shh^C (from UniProt Q62226 25-198) (ligand) | 1.26 | 
^C25S;Δ26–33Shh^C (from UniProt Q62226 25-198) (ligand) | 1.65 | 
^C25S;Δ26–38Shh^C (from UniProt Q62226 25-198) (ligand) | 0.36 | 
^C25S;Δ26–31Shh^C (from UniProt Q62226 25-198) (ligand) | 1.41 | 

The remaining lines, values ahead:

Alp1 activity of C3H10T1/2 cells (differentiation into osteoblasts) [au] | Alp1 activity of C3H10T1/2 cells (differentiation into osteoblasts), with the Shh-neutralising antibody 5E1 (1 µg/mL) [au] | Substance
0.7 |  | ^C25S;Δ26–34Shh^C (from UniProt Q62226 25-198) (ligand)
1.5 | 0.26 | Shh^C, soluble depalmitoylated (N-terminally processed), C-cholesteroylated Sonic hedgehog released in the presence of 10% serum (ligand)
0.38 |  | ^C25S;Δ26–35Shh^C (from UniProt Q62226 25-198) (ligand)
